# Results taken from paper PMC5906670, “Structural basis of epilepsy-related ligand–receptor complex LGI1–ADAM22” (Nature Communications, 2018).
# B1: LGI1 (wild type, pull-down with ADAM22/23 ECD-FLAG) [human] / ADAM22 ECD-FLAG [human] (parent complex)
# chain 1: KKPAKPKCPAVCTCTKDNALCENARSIPRTVPPDVISLSFVRSGFTEISEGSFLFTPSLQLLLFTSNSFDVISDDAFIGLPHLEYLFIENNNIKSISRHTFRGLKSLIHLSLANNNLQTLPKDIFKGLDSLTNVDLRGNSFNCDCKLKWLVEWLGHTNATVEDIYCEGPPEYKKRKINSLSSKDFDCIITEFAKSQDLPYQSLSIDTFSYLNDEYVVIAQPFTGKCIFLEWDHVEKTFRNYDNITGTSTVVCKPIVIETQLYVIVAQLFGGSHIYKRDSFANKFIKIQDIEILKIRKPNDIETFKIENNWYFVVADSSKAGFTTIYKWNGNGFYSHQSLHAWYRDTDVEYLEIVRTPQTLRTPHLILSSSSQRPVIYQWNKATQLFTNQTDIPNMEDVYAVKHFSVKGDVYICLTRFIGDSKVMKWGGSSFQDIQRMPSRGSMVFQPLQINNYQYAILGSDYSFTQVYNWDAEKAKFVKFQELNVQAPRSFTHVSINKRNFLFASSFKGNTQIYKHVIVDLSA
# chain 2: SKRQLRRYPRNVEEETKYIELMIVNDHLMFKKHRLSVVHTNTYAKSVVNMADLIYKDQLKTRIVLVAMETWATDNKFAISENPLITLREFMKYRRDFIKEKSDAVHLFSGSQFESSRSGAAYIGGICSLLKGGGVNEFGKTDLMAVTLAQSLAHNIGIISDKRKLASGECKCEDTWSGCIMGDTGYYLPKKFTQCNIEEYHDFLNSGGGACLFNKPSKLLDPPECGNGFIETGEECDCGTPAECVLEGAECCKKCTLTQDSQCSDGLCCKKCKFQPMGTVCREAVNDCDIRETCSGNSSQCAPNIHKMDGYSCDGVQGICFGGRCKTRDRQCKYIWGQKVTASDKYCYEKLNIEGTEKGNCGKDKDTWIQCNKRDVLCGYLLCTNIGNIPRLGELDGEITSTLVVQQGRTLNCSGGHVKLEEDVDLGYVEDGTPCGPQMMCLEHRCLPVASFNFSTCLSSKEGTICSGNGVCSNELKCVCNRHWIGSDCNTYFPHNDDAKTGITLSG
# B2: LGI1 (wild type, pull-down with ADAM22/23 ECD-FLAG) [human] / ADAM23 ECD-FLAG [human] (parent complex)
# chain 1: B1 chain 1
# chain 2: AVNPSRGIFEEMKYLELMIVNDHKTYKKHRSSHAHTNNFAKSVVNLVDSIYKEQLNTRVVLVAVETWTEKDQIDITTNPVQMLHEFSKYRQRIKQHADAVHLISRVTFHYKRSSLSYFGGVCSRTRGVGVNEYGLPMAVAQVLSQSLAQNLGIQWEPSSRKPKCDCTESWGGCIMEETGVSHSRKFSKCSILEYRDFLQRGGGACLFNRPTKLFEPTECGNGYVEAGEECDCGFHVECYGLCCKKCSLSNGAHCSDGPCCNNTSCLFQPRGYECRDAVNECDITEYCTGDSGQCPPNLHKQDGYACNQNQGRCYNGECKTRDNQCQYIWGTKAAGSDKFCYEKLNTEGTEKGNCGKDGDRWIQCSKHDVFCGFLLCTNLTRAPRIGQLQGEIIPTSFYHQGRVIDCSGAHVVLDDDTDVGYVEDGTPCGPSMMCLDRKCLQIQALNMSSCPLDSKGKVCSGHGVCSNEATCICDFTWAGTDCSIRDPVRNLHPPKDEGPKGPSA
# Variants of: B1
# Assay: pull-down; anti-FLAG antibody agarose; proteins secreted from HEK293T cells; n = 4 independent experiments; read off a plot
row,Variant,percent of parent
1,"chain 1 KKPAKPKCPAVCTCTKDNALCENARSIPRTVPPDVISLSFVRSGFTEISEGSFLFTPSLQLLLFTSNSFDVISDDAFIGLPHLEYLFIENNNIKSISRHTFRGLKSLIHLSLANNNLQTLPKDIFKGLDSLTNVDLRGNSFNCDCKLKWLVEWLGHTNATVEDIYCEGPPEYKKRKINSLSSKDFDCIITEFAKSQDLPYQSLSIDTFSYLNDEYVVIAQPFTGKCIFLEWDHVEKTFRNYDNITGTSTVVCKPIVIETQLYVIVAQLFGGSHIYKRDSFANKFIKIQDIEILKIAAPNDIETFKIENNWYFVVADSSKAGFTTIYKWNGNGFYSHQSLHAWYRDTDVEYLEIVRTPQTLRTPHLILSSSSQRPVIYQWNKATQLFTNQTDIPNMEDVYAVKHFSVKGDVYICLTRFIGDSKVMKWGGSSFQDIQRMPSRGSMVFQPLQINNYQYAILGSDYSFTQVYNWDAEKAKFVKFQELNVQAPRSFTHVSINKRNFLFASSFKGNTQIYKHVIVDLSA [chain 1 R296A, chain 1 K297A]",~15 % of WT
2,chain 1 KKPAKPKCPAVCTCTKDNALCENARSIPRTVPPDVISLSFVRSGFTEISEGSFLFTPSLQLLLFTSNSFDVISDDAFIGLPHLEYLFIENNNIKSISRHTFRGLKSLIHLSLANNNLQTLPKDIFKGLDSLTNVDLRGNSFNCDCKLKWLVEWLGHTNATVEDIYCEGPPEYKKRKINSLSSKDFDCIITEFAKSQDLPYQSLSIDTFSYLNDEYVVIAQPFTGKCIFLEWDHVEKTFRNYDNITGTSTVVCKPIVIETQLYVIVAQLFGGSHIYKRDSFANKFIKIQDIEILKIRAPNDIETFKIENNWYFVVADSSKAGFTTIYKWNGNGFYSHQSLHAWYRDTDVEYLEIVRTPQTLRTPHLILSSSSQRPVIYQWNKATQLFTNQTDIPNMEDVYAVKHFSVKGDVYICLTRFIGDSKVMKWGGSSFQDIQRMPSRGSMVFQPLQINNYQYAILGSDYSFTQVYNWDAEKAKFVKFQELNVQAPRSFTHVSINKRNFLFASSFKGNTQIYKHVIVDLSA [chain 1 K297A],~64 % of WT

# The next lines start with the values.
row,percent of parent,Variant
1,~35 % of WT,chain 1 KKPAKPKCPAVCTCTKDNALCENARSIPRTVPPDVISLSFVRSGFTEISEGSFLFTPSLQLLLFTSNSFDVISDDAFIGLPHLEYLFIENNNIKSISRHTFRGLKSLIHLSLANNNLQTLPKDIFKGLDSLTNVDLRGNSFNCDCKLKWLVEWLGHTNATVEDIYCEGPPEYKKRKINSLSSKDFDCIITEFAKSQDLPYQSLSIDTFSYLNDEYVVIAQPFTGKCIFLEWDHVEKTFRNYDNITGTSTAVCKPIVIETQLYVIVAQLFGGSHIYKRDSFANKFIKIQDIEILKIRKPNDIETFKIENNWYFVVADSSKAGFTTIYKWNGNGFYSHQSLHAWYRDTDVEYLEIVRTPQTLRTPHLILSSSSQRPVIYQWNKATQLFTNQTDIPNMEDVYAVKHFSVKGDVYICLTRFIGDSKVMKWGGSSFQDIQRMPSRGSMVFQPLQINNYQYAILGSDYSFTQVYNWDAEKAKFVKFQELNVQAPRSFTHVSINKRNFLFASSFKGNTQIYKHVIVDLSA [chain 1 V250A]
2,~8 % of WT,chain 1 KKPAKPKCPAVCTCTKDNALCENARSIPRTVPPDVISLSFVRSGFTEISEGSFLFTPSLQLLLFTSNSFDVISDDAFIGLPHLEYLFIENNNIKSISRHTFRGLKSLIHLSLANNNLQTLPKDIFKGLDSLTNVDLRGNSFNCDCKLKWLVEWLGHTNATVEDIYCEGPPEYKKRKINSLSSKDFDCIITEFAKSQDLPYQSLSIDTFSYLNDEYVVIAQPFTGKCIFLEWDHVEKTFRNYDNITGTSTVVCKPIVIETQLYVIVAQAFGGSHIYKRDSFANKFIKIQDIEILKIRKPNDIETFKIENNWYFVVADSSKAGFTTIYKWNGNGFYSHQSLHAWYRDTDVEYLEIVRTPQTLRTPHLILSSSSQRPVIYQWNKATQLFTNQTDIPNMEDVYAVKHFSVKGDVYICLTRFIGDSKVMKWGGSSFQDIQRMPSRGSMVFQPLQINNYQYAILGSDYSFTQVYNWDAEKAKFVKFQELNVQAPRSFTHVSINKRNFLFASSFKGNTQIYKHVIVDLSA [chain 1 L268A]

# Variants of: B2
# Assay: as above
row,Variant,percent of parent
1,chain 1 KKPAKPKCPAVCTCTKDNALCENARSIPRTVPPDVISLSFVRSGFTEISEGSFLFTPSLQLLLFTSNSFDVISDDAFIGLPHLEYLFIENNNIKSISRHTFRGLKSLIHLSLANNNLQTLPKDIFKGLDSLTNVDLRGNSFNCDCKLKWLVEWLGHTNATVEDIYCEGPPEYKKRKINSLSSKDFDCIITEFAKSQDLPYQSLSIDTFSYLNDEYVVIAQPFTGKCIFLEWDHVEKTFRNYDNITGTSTVVCKPIVIETQLYVIVAQLFGGSHIYKRDSFANKFIKIQDIEILKIRAPNDIETFKIENNWYFVVADSSKAGFTTIYKWNGNGFYSHQSLHAWYRDTDVEYLEIVRTPQTLRTPHLILSSSSQRPVIYQWNKATQLFTNQTDIPNMEDVYAVKHFSVKGDVYICLTRFIGDSKVMKWGGSSFQDIQRMPSRGSMVFQPLQINNYQYAILGSDYSFTQVYNWDAEKAKFVKFQELNVQAPRSFTHVSINKRNFLFASSFKGNTQIYKHVIVDLSA [chain 1 K297A],~46 % of WT
2,chain 1 KKPAKPKCPAVCTCTKDNALCENARSIPRTVPPDVISLSFVRSGFTEISEGSFLFTPSLQLLLFTSNSFDVISDDAFIGLPHLEYLFIENNNIKSISRHTFRGLKSLIHLSLANNNLQTLPKDIFKGLDSLTNVDLRGNSFNCDCKLKWLVEWLGHTNATVEDIYCEGPPEYKKRKINSLSSKDFDCIITEFAKSQDLPYQSLSIDTFSYLNDEYVVIAQPFTGKCIFLEWDHVEKTFRNYDNITGTSTVVCKPIVIETQLYVIVAQAFGGSHIYKRDSFANKFIKIQDIEILKIRKPNDIETFKIENNWYFVVADSSKAGFTTIYKWNGNGFYSHQSLHAWYRDTDVEYLEIVRTPQTLRTPHLILSSSSQRPVIYQWNKATQLFTNQTDIPNMEDVYAVKHFSVKGDVYICLTRFIGDSKVMKWGGSSFQDIQRMPSRGSMVFQPLQINNYQYAILGSDYSFTQVYNWDAEKAKFVKFQELNVQAPRSFTHVSINKRNFLFASSFKGNTQIYKHVIVDLSA [chain 1 L268A],~14 % of WT
